Assay results as given in patent publication US20140289906A1, “Compositions Having Dicamba Decarboxylase Activity and Methods of Use” (priority 2013, published 2014).

B1: 45 (protein)
chain: MANDDLAEVIAAHPDRFAGFAALPMRDPQAAAVELQRAVGTHGFCGAMINGLIEGRFLDDPAFAPLLSTAADLGVPLYLHPSFPPPQVAEIYFGGLAPVLGDLLATAGWGWHAETALHVLRLVATGVFDRLPELWVIVGHMGEMIPFALARIDTVLSPVAQLRQPVAQYFQTNVWFTTSGYTTFPPLQCALSTVGIDRLIFSVDYPYTDNTSARALLDTAPISPVDREKLAHGTVEALLRV
modifications: Mycobacterium sp
B2: 40 (protein, listed as Rhodococcus jostii)
chain: MAQGKIALEEHFAIPETLNDSAGFVPGTYWDELQARLLDIQDVRLKLMDEHNIETMILSLNAPAVQAIPERERAIDIARRANDVLAEECAKRPDRFRGFAALPLQDPDAAAEELRRCVTELGFVGALVNGFSQSATVDGGSTPLYYDLPRYRPFWAEVERLDVPFYLHPRNPLNQDARIYEGHPWLLGPTWAFAQETAVHALRLMASGLFDEHPGLRIVLGHMGEGIPAMLWRIDHRNAWVDVPPAYPAKRRMVDYFTENFFVTTSGNFRTQTLIDLLLELGSERVMFSTDWPFENINHAAEWFDAASISEADRLKIGRTNAATLFKLDR
B3: 42 (protein)
chain: MAQGKIALEEHFAIPDTLQDSAGFVPGDYWKELSARLLDIHEQRLMQMDAYGIEKMILSLNAPAVQAIPDKAKALEISRRANDFLAEQCARNPDRFLGFAALPLQDPDAATAELQRCVKTLGFVGALVNGFSQEGDGVTPLYYDLPQYRGFWAEVEKLAVPFYLHPRNPLPQDSRIYAGHPWLMGPTWAFAQETAVHALRLVGSGLFDDHPALRIILGHMGEGLPYMMWRIDNRNAWVKVAPNYPAKRRIADYFNENFYITTSGNFRTQSLVDAMLEIGADRILFSTDWPFENIDHASDWFDTATISEADRLKIGRTNAATLFNLES
modifications: Agrobacterium radiobacter
B4: 3 (protein, listed as Lactobacillus plantarum)
chain: MAKLITVEEHFESAAVTAAMRQAVGNAVLPAVSPALRQYMRDNLPSPAIMQDTQHERLAFMAQYGIDMQVLSYGNSSPQNLSPEQAVPLSQLANDELAKAVVAHPDRYAGLAVLPVGDPQAAVAELNRAVTTLGLRGVLLKGNYQNKFFDEPFFLPIFEAAAALDVPVYFHPSFIPQAVTSHYFESNQWSDVVTGILSSAGYGWHMDVGIQVIRMIASGIFDKLPGLKLISGHWGELVPLFLERLDDELTTYTDLQYPFSTYYRHNVYVTPSGILSAPQLQFMLAEMGADHLMYSIDYPYKQPETSGSFLDIADLTDEQRAQIAFGTATTLFKL
B5: 26 (protein, listed as Variovorax paradoxus)
chain: MATHMAPMKNKIALEEHFAIDLTIADSQVYARPEVWQGLKSNLLDFEQQRLEKMDEWGTEFSILSLNSPAVQGIPDAKRAIEVAQRANDVLAEQVKRHPTRFGGFAALPMQDPEASARELERCVNQLGFHGFLVNGFSQVGDENIVVYYDDARFNDFWTAAAALKKPFYMHPRDPLLAREPIYDGAHWLTGPTWAFAMETAIHALRLMSSGMFDRHPALQMILGHFGEGIPFNIWRVDHILRKGRRGMPCDKEIGEYLRSNVHITTSGNFRTPTLLSTMLEVGSDRIMYSVDYPFEKHEDAARWFDTCEISENDRQKIGRDNARKLFGLK
B6: 21 (protein, listed as Agrobacterium tumefaciens)
chain: MAQGKVALEEHFAIPETLQDSAGFVPGDYWKELQHRLLDIQDTRLKLMDAHGIETMILSLNAPAVQAIPDRKKAIEIARRANDVLAEECARRPDRFLAFAALPLQDPDAATQELQRCVNDLGFVGALVNGFSQEGDGQTPLYYDLPQYRPFWGEVEKLDVPFYLHPRNPLPQDSRIYDGHPWLLGPTWAFAQETAVHALRLMASGLFDAHPRLNIILGHMGEGLPYMMWRIDHRNAWVKLPPRYPAKRRFVDYFNENFHITTSGNFRTQTLIDAILEIGADRILFSTDWPFENIDHASDWFNATTIAEADRVKIGRTNARRLFKLDGR
B7: 39 (protein, listed as Agrobacterium fabrum)
chain: MAQGKVALEEHFAIPETLQDSAGFVPGDCWTELQHRLLDIQDTRLKLMDAHGIETMILSLNAPAVQAIPDKTKAIEIARRANDALAEECAKRPDRFLAFAALPLQDPDAATQELRRCVNDLGFVGALVNGFSQEGDGQTPLYYDLPQYRPFWGEVEKLDVPFYLHPRNPLPQDSRIYDGHPWLLGPTWAFAQETAVHALRLMASGLFDEHPRLDIILGHMGEGLPYMMWRIDHRNAWVKLPPRYPAKRRFVDYFNENFHITTSGNFRTQTLIDAILEIGADRILFSTDWPFENIDHASDWFHATSIAEADRVKIGRTNARRLFKLDGR
B8: 37 (protein, listed as Burkholderia gladioli)
chain: MATFSNVKKIALEEHFAIAETIEDSAGFVPPDDWVELRGRLLDIQERRLAEMDRAGIELMVLSLNAPAVQAIRDPRQAVELARRANDYLAEQVARRPDRFRAFAALPMQAPEQAIREAERCVRELGFVGALVNGFSEAEDGAELYYDLPRYRPFWAALEALEVPFYLHPRNPLAGRAPIYDGHSWLMGPTWAFGQETAVHALRLMGSGLFDAHPRLQIILGHMGEGLPYSMWRVDNRNAWVSAKPNYPAEKPIAEYFRNNFWLTTSGNFRTQTLIDAMLEIGSDRILFSADWPFENMDHAADWFDHASISENDRIKIGRGNAERLLKLGR
B9: 16 (protein, listed as Staphylococcus aureus)
chain: MAQNNMEANQMKSITFEEHYVIEDIQKETMNAISADPKGVPMKVMLEGLEKKTGFTNADELSHHDERIQFMNNQDVQIQVLSYGNGSPSNLVGQKAIELCQKANDQLANYIAQYPNRFVGFATLPINEPETAAREFERCINDLGFKGALIMGRAQDGFLDQDKYDIIFKTAENLGVPIYLHPAPVNSDIYQSYYKGNYPEVTAATFACFGYGWHIDVGIHAIHLVLSGIFDRYPKLNMIIGHWGEFIPFFLERMDEALFAEHLNHPVSYYFKNNFYITPSGMLTKPQFDLVKKEAGIDRILYAADYPYIEPEKLGVFLDELGLTDEEKEKISYTNGAKLLGLSSNN
B10: 59 (protein)
chain: MAPSVIDAHAHFLPGSLVTALRSRSDAPDIRTDSNGGESFGIYRTRMPYGRTYDALDVRLARMDELGVDRQILSLPGLFGIDSRPVSQALPLVRAFNDGVADLVRKHPDRFSGIAALPLADLDAAQEEYRRARGDLGLSGLILPGDTFVSVAAAERVRPLFELAATIGGLIFVHPGPLPDETGSAVDAPAPHTDSVVHRRVTVDIQNRMTEVMVTLALTDFLAPYPSVPVQVANLGGSLPFVIERMDHVYALRNPEAPPPSLSLRSLYVDAASLGPRAIALAAEVYGADRVLFGSDYPIFDDGRCLDAVRQTRLSPDARALIAGGNAARMLTQT
modifications: alpha proteobacterium
B11: 22 (protein, listed as Staphylococcus epidermidis)
chain: MAKSINFEEHYVVDDIQKETMKYMSSDPNGVPMQTMLKGLEQKSGFTNADDITKHDERIKFMDEHDVEMQVLSYGNGAPSNLEGERAIELCQQANDTLAKYVNEHPDRFVGFATLPINEPQAAVEEFKRCIKELGFKGALIMGHPKNGFLDQDQYDDLFATAEALNVPIYLHPSPVQSDVYQAYYKGNYSDVTAATFACFGYGWHVDVGIHAIHLVLSGVFDRHPNLNMIIGHWGEFVPFFLERMDDILFADHLEHPISYYFKNNFYITPSGMLTKPQFDLVKAEVGVDRILYSADYPYVEPDKLGTFLDELDLTEEEKEKISYKNGAKLLGLEK
B12: 38 (protein, listed as Variovorax paradoxus)
chain: MAQGKIGLEEHFAIPQTLQDSAGFVPGVYWKELSSRLLDIHDGRLRQMDEHGMEMMILSLNAPAVQAVADPVKAYELAVRANDFLAEQVAKRPDRFQAFAALPMQDPEKATQELERCMSVLGFRGALVNGFSQVGTPDNVAYYDAPQYAPFWAAAERLDAPFYLHPRNPIASWAQIYEGHPWLLGPTWAFAQETAVHALRLMASGLFDRHPGLKIILGHLGEGLPYNMWRVDHRNAWVKAPKGYPAKRKLCEYFQENFYLTTSGNFRTQTLIDAMLEVGSDRILFSTDWPFENIDHASNWFNDTSISEADRKKIGRTNAMSLFKLA
B13: 19 (protein, listed as Talaromyces marneffei)
chain: MATPIITLEEHYISSAIRDASETDHYAVFPSQIISKLNTLSTERLQDLDNGHVSLQVISHGPGAQPPYLCQAANDELASAISANPTRFAGFALLPIAEPQLAVQELERCITQHKFVGALIDNHTNGQFYDDQKFWPVFEKAQELDAPIYVHPSYPDEESGVAAHYRGNYDDRIAAALGAYGWGWHSDTALSILRLFAAGLFDTYPNIKIIIGHMGEMLPFQLERVIGIASRFGRSRGLREVWTQNIWVTTSGMFALAPLACLLQTMPIERVLYSVDYPFSANEKGFAFLEEIKKSGLIKEGEDWERFLYKNAQELLKVNV
B14: 60 (protein, listed as Catenulispora acidiphila)
chain: MARGFVRTAVVPGFWDAGWRGAGQPGGMRVDVHAHLFPAAYLDLLDDFRQDGGVGTREVRALGGGDGERELRLRLAAMDAVGVDVQLLSTCPQGPYTGDPTAAVEAARCANVALAQTVAQYPERLRALAALPLPHILASVDELNRAMEQDGMLGAAVGTSILGRPLSHPDFEPLFAALNRRKGVLFVHPIGESAGSPLMQASKLDRVIGYAAEVSTAILQLFQAGLTVKYPDIRIIAPHMGGYLPFLIQRLDRHRDWYLPKDAPSAGQLMRGIAYDTANPLPAALRLTAEVVGPERLLLGTDYPFEQGPSLRDHIEYILAAGLPEAQAKMIVDVNAADFLDMRSGAEQPPV

Assay: 14C assay: 14CO2 capture from [14C]-carboxyl-labeled dicamba with IPTG-induced recombinant E. coli cells
Conditions: for Dicamba Decarboxylase Activity: IPTG-induced recombinant E. coli cells, 14CO2 from [14C]-carboxyl-labeled dicamba; for Enzymatic Detection level: dicamba decarboxylation activity; for decarboxylation activity of dicamba: among the 108 sequences tested, recombinant E. coli cell assay

Molecule	Dicamba Decarboxylase Activity	Enzymatic Detection level	decarboxylation activity of dicamba
B1	No	No	
B2	Low	Low	
B3	Low	Low	
B4	Low	Low	
B5	High	High	showed decarboxylation activity of dicamba
B6	High	High	showed decarboxylation activity of dicamba
B7	No	No	
B8	Low	Low	
B9	High	High	showed decarboxylation activity of dicamba
B10	No	No	
B11	High	High	showed decarboxylation activity of dicamba
B12	Low	Low	
B13	High	High	showed decarboxylation activity of dicamba
B14	No	No	
